# Reference: PMC7081427
# Legend:
# Assay in all cases: EMSA
# nucleolin RRM [1] = target: T1, nucleolin RRM (UniProt P19338 267-645)
# RRM-RGG F/A3 = RRM-RGG F/A3 (UniProt P19338 267-709, F663A;F676A;F684A)
# nucleolin RRM [2] = target: T1, nucleolin RRM; remark: listed apart in the source
# nucleolin RRM-RGG = nucleolin RRM-RGG (UniProt P19338 267-709)
# RRM-RGG F/A2 = RRM-RGG F/A2 (UniProt P19338 267-709, F663A;F676A)
# RRM-RGG F/A1 = RRM-RGG F/A1 (UniProt P19338 267-709, F663A)
# Chain of RRM-RGG F/A1 (P19338 267-709 F663A): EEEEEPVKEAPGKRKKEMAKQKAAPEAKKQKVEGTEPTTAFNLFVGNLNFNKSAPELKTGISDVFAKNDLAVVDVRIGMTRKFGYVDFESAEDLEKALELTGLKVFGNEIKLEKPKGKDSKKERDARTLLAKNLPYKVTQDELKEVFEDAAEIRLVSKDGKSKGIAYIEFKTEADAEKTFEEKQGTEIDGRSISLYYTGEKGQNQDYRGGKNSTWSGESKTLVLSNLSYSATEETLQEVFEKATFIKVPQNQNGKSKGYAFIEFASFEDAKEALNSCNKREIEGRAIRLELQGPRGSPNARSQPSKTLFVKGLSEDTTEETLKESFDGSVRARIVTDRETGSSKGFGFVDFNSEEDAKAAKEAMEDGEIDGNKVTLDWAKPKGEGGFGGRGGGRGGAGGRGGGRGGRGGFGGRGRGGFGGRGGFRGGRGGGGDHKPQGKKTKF
# T1 sequence (P19338 267-645): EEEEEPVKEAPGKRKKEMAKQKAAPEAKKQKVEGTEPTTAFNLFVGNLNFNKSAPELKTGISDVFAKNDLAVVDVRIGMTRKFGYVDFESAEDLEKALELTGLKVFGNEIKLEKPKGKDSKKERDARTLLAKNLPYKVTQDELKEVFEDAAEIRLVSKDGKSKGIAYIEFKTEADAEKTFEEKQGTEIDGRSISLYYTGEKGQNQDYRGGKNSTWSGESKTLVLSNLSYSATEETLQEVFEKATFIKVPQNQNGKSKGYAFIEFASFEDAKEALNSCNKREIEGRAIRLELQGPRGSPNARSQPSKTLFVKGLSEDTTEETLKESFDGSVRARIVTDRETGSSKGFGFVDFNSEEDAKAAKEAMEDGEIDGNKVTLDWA
# Chain of RRM-RGG F/A2 (P19338 267-709 F663A/F676A): as the sequence (P19338 267-709 F663A) above, with F410A counted along it
# Chain of RRM-RGG F/A3 (P19338 267-709 F663A/F676A/F684A): as the sequence (P19338 267-709 F663A) above, with F410A, F418A counted along it
# Chain of nucleolin RRM-RGG (P19338 267-709): as the sequence (P19338 267-709 F663A) above, with A397F counted along it
Binder,binding result (nucleolin RRM [1]),Kd (RRM-RGG F/A3) [nM],Kd (nucleolin RRM [2]) [nM],Kd (nucleolin RRM-RGG) [nM],Kd (RRM-RGG F/A2) [nM],Kd (RRM-RGG F/A1) [nM]
GGGGGGGGGG (ssDNA) [dG10],binds,,,,,
GGGCGCGGGAGGAATTGGGCGGG (structured_DNA) [BCL-2],,172 ± 9.1,73.6 ± 7.1,79.6 ± 4,71.8 ± 6.9,75.5 ± 9.5
